Assay results taken from US20250210128A1, “COMPUTER-IMPLEMENTED DESIGN OF PEPTIDE:RECEPTOR SIGNALING COMPLEXES FOR ENHANCED CHEMOTAXIS” (Ecole Polytechnique Federale de Lausanne (EPFL), priority 2022, published 2025).

Experiments:
[1] = biological target: CLdes CXCR4 sensor (Cdes2 design combined with H113N) (human); assay: cell-based or functional assay
[2] = biological target: WT CXCR4 with an N-terminal 3xHA-tag (human) (UniProt P61073); assay: cell-based or functional assay
WT CXCR4 with an N-terminal 3xHA-tag (human), sequence (P61073 other isoform, or with tags, fused parts or gaps): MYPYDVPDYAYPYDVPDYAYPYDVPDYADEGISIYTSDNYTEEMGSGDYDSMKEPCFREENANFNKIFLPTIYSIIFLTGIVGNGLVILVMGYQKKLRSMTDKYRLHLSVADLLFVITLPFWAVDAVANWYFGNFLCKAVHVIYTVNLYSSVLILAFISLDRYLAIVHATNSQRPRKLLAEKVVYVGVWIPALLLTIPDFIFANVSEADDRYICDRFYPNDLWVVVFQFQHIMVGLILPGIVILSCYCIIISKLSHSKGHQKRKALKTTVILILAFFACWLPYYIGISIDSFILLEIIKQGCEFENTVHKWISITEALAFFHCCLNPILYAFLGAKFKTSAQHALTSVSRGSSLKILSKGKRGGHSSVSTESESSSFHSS

migration of transduced primary human T cells (Boyden chamber, migration index over no-chemoattractant control) [1]: < 5 fold
migration of transduced primary human T cells (Boyden chamber, migration index over no-chemoattractant control) [2]: 1.5 fold
Substance: full-length wild-type CXCL12 chemokine (from UniProt P48061 22-93) (ligand)
